Experimental data published in US20070054353A1, “Nuclear receptor transcriptional corepressor and uses thereof” (priority 2002, published 2007).

B1: LCoR: novel 433 amino acid nuclear receptor corepressor polypeptide (SEQ ID NO:2) with a single LXXLL NR box (protein, listed as Homo sapiens)
chain: MQRMIQQFAAEYTSKNSSTQDPSQPNSTKNQSLPKASPVTTSPTAATTQNPVLSKLLMADQDSPLDLTVRKSQSEPSEQDGVLDLSTKKSPCAGSTSLSHSPGCSSTQGNGRPGRPSQYRPDGLRSGDGVPPRSLQDGTREGFGHSTSLKVPLARSLQISEELLSRNQLSTAASLGPSGLQNHGQHLILSREASWAKPHYEFNLSRMKFRGNGALSNISDLPFLAENSAFPKMALQAKQDGKKDVSHSSPVDLKIPQVRGMDLSWESRTGDQYSYSSLVMGSQTESALSKKLRAILPKQSRKSMLDAGPDSWGSDAEQSTPGQPYPTSDQEGDPGSKQPRKKRGRYRQYNSEILEEAISVVMSGKMSVSKAQSIYGIPHSTLEYKVKERLGTLKNPPKKKMKLMRSEGPDVSVKIELDPQGEAAQSANESKNE
B2: LCoR-LSKAA: LCoR with point mutagenesis of NR box LSKLL to LSKAA at position 53 (protein)
chain: MQRMIQQFAAEYTSKNSSTQDPSQPNSTKNQSLPKASPVTTSPTAATTQNPVLSKAAMADQDSPLDLTVRKSQSEPSEQDGVLDLSTKKSPCAGSTSLSHSPGCSSTQGNGRPGRPSQYRPDGLRSGDGVPPRSLQDGTREGFGHSTSLKVPLARSLQISEELLSRNQLSTAASLGPSGLQNHGQHLILSREASWAKPHYEFNLSRMKFRGNGALSNISDLPFLAENSAFPKMALQAKQDGKKDVSHSSPVDLKIPQVRGMDLSWESRTGDQYSYSSLVMGSQTESALSKKLRAILPKQSRKSMLDAGPDSWGSDAEQSTPGQPYPTSDQEGDPGSKQPRKKRGRYRQYNSEILEEAISVVMSGKMSVSKAQSIYGIPHSTLEYKVKERLGTLKNPPKKKMKLMRSEGPDVSVKIELDPQGEAAQSANESKNE

Key:
Type in all cases: cell-based
ERα = molecular target: T1, ERα (Homo sapiens, UniProt P03372); experiment: Transient transfection luciferase reporter, ERα transactivation in COS-7 cells; conditions: coexpression in COS-7 cells, 10^−7M hormone, ERE3-TATA-pXP2 reporter
T1 construct: expressed in transfected cells; host or cells: COS-7
T1 sequence (P03372 1-595): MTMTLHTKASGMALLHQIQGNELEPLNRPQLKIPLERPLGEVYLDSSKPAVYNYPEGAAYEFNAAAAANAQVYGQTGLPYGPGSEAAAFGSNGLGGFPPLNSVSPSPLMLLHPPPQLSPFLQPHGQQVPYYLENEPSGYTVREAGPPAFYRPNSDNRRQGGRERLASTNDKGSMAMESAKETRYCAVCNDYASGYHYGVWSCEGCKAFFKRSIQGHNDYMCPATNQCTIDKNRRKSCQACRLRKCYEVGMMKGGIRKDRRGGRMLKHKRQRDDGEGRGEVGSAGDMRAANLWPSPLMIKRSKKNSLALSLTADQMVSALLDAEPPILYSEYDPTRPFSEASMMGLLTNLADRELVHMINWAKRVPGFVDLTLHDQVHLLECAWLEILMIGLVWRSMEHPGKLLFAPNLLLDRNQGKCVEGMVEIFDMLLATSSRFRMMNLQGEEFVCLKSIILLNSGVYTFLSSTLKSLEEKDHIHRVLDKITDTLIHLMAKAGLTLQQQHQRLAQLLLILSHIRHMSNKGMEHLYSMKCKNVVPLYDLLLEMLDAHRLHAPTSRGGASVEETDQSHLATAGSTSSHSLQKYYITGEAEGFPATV
Protocol: (§1) All cell lines were cultured under the recommended conditions. COS-7 cells grown in […] in DMEM without phenol red, supplemented with 10% FBS were transfected in medium without serum with lipofectamine 2000 (Invitrogen, Burlington, Ont.) with 100 ng of nuclear receptor expression vectors as indicated, 200 ng of TIF-2 or TIF-2.1, as indicated, 250 ng of reporter plasmid, 250 ng of infemal control vector pCMV-βgal, and various concentrations of LCoR/pSG5 or LCoR-LSKAA/pSG5 expression vectors and pSG5 carrier. Medium was replaced 24 h after transfection by a medium containing charcoal-stripped serum and ligand (100 nM) and TSA (3 μM) for 18 h, as indicated. Cells were harvested in 200 […] of reporter lysis buffer (Promega).
(§2) COS-7 cells were cotransfected with expression vectors for ERα HEG0 (A and C) or GR (D) or PR (F) or VDR (H), ERE3-TATA-pXP2 (A and C), GRE5/pXP2 (D and F) or VDRE3tk/pXP2 (H) luciferase reporter vectors, pCMV-β-gal as internal control, and LCoR/pSG5 or LSKAA/pSG5 expression vectors as indicated. Cells were treated with 10^−7M of hormones (solid bars) or vehicle (open bars). Normalized luciferase activities (RLU) are the means±SEM from at least 3 experiments. […] Cells were transfected as in FIG. 5A with LCoR, TIF-2 or TIF2.1 as indicated. […]

GR = molecular target: T2, GR (Homo sapiens, UniProt P04150); experiment: Transient transfection luciferase reporter, GR transactivation in COS-7 cells; conditions: 1 μg of transfected LCoR, COS-7; one range given for GR, PR and VDR together
T2 construct: expressed in transfected cells; host or cells: COS-7
T2 sequence (P04150 1-777): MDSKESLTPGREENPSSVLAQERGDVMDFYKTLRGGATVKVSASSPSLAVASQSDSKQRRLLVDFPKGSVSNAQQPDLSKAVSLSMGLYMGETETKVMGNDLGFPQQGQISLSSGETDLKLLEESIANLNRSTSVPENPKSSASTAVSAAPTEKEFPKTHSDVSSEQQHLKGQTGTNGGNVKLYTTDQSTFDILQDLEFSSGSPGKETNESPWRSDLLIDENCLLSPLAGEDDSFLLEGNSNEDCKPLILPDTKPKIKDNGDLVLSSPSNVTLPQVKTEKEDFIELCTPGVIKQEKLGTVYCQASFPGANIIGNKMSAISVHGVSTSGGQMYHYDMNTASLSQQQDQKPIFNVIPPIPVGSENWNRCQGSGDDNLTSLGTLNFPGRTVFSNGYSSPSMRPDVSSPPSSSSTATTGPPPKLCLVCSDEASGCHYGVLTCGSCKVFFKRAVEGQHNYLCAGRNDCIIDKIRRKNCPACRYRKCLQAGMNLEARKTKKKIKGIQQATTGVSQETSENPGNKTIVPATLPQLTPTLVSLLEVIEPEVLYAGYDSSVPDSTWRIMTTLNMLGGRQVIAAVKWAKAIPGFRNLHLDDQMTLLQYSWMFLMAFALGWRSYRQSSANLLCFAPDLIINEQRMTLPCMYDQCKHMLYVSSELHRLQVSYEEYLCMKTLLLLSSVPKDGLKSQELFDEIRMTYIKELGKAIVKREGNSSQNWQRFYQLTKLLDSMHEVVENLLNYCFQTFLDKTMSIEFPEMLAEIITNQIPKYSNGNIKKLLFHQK
Protocol: as §1, §2

PR = molecular target: T3, PR (Homo sapiens, UniProt P06401); experiment: Transient transfection luciferase reporter, PR transactivation in COS-7 cells; conditions: 1 μg of transfected LCoR, COS-7; one range given for GR, PR and VDR together
T3 construct: expressed in transfected cells; host or cells: COS-7
T3 sequence (P06401 1-933): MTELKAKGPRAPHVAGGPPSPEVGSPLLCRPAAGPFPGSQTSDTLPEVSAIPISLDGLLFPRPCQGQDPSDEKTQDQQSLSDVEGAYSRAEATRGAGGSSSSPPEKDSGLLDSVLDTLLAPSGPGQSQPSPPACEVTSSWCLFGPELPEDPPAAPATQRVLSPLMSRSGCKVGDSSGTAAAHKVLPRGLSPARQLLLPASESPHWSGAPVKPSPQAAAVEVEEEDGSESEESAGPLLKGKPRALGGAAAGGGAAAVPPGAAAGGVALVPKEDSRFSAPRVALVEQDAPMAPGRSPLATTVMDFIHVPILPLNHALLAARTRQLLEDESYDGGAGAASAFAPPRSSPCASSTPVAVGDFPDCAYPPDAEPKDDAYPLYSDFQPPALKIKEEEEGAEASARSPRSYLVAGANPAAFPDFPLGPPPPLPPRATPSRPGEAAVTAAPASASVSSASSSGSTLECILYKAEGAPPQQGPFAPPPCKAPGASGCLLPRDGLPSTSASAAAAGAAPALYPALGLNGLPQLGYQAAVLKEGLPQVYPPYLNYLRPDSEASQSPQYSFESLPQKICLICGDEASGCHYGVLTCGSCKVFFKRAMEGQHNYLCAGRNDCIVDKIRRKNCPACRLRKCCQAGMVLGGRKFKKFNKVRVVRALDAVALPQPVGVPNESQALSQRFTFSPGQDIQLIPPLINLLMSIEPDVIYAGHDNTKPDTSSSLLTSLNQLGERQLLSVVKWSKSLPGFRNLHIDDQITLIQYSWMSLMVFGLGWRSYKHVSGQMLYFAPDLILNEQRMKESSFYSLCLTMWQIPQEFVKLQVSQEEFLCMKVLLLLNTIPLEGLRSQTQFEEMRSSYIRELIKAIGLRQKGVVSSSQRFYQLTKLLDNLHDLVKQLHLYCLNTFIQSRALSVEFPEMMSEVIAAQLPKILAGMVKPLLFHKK
Protocol: as §1, §2

VDR = molecular target: T4, VDR (Homo sapiens, UniProt P11473); experiment: Transient transfection luciferase reporter, VDR transactivation in COS-7 cells; conditions: 1 μg of transfected LCoR, COS-7; one range given for GR, PR and VDR together
T4 construct: expressed in transfected cells; host or cells: COS-7
T4 sequence (P11473 1-427): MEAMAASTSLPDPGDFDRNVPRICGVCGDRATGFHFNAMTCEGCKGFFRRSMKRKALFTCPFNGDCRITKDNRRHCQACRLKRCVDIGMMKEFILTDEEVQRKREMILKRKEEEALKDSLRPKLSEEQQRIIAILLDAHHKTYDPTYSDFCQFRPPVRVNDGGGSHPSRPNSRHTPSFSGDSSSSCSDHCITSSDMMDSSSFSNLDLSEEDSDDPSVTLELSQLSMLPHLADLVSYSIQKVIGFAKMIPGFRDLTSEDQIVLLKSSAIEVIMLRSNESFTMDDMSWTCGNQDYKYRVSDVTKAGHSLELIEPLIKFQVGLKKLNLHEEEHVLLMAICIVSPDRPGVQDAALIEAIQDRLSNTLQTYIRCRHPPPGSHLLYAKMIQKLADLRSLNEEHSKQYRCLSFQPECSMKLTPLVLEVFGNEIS
Protocol: as §1, §2

5×17 mer-tk promoter = experiment: GAL4-LCoR repression of 5×17 mer-tk promoter in COS-7 cells
Protocol: as §1, §2

nuclear receptors = experiment: Ligand-dependent transactivation by nuclear receptors (summary)
Protocol: as §1, §2

[1] = molecular target: T5, interaction of LCoR and ERα (Homo sapiens, UniProt P03372); experiment: BRET assay of LCoR-ERα interaction in living COS-7 cells; conditions: rluc-LCoR-LSKAA versus rluc-LCoR, COS-7 cells
T5 construct: expressed in transfected cells; host or cells: COS-7
T5 sequence (P03372 1-595): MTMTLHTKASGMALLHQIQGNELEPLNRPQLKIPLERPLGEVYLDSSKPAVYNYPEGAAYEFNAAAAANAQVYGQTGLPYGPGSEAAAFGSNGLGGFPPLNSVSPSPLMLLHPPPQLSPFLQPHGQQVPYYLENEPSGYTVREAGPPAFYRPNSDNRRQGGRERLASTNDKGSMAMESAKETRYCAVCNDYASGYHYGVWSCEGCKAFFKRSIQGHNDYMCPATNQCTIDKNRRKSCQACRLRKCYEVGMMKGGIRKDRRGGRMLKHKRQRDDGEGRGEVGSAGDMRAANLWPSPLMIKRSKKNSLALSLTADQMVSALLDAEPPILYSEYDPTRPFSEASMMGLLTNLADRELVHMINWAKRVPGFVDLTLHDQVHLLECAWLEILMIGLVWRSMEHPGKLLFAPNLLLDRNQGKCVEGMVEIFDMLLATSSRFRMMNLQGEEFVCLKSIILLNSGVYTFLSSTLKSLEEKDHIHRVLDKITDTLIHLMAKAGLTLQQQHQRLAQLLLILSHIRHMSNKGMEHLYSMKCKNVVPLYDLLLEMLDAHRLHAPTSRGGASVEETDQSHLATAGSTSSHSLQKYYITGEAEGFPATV
Protocol: Readings were started immediately after coelenterazine H addition, and 10 repeated measures were taken.
Interaction of ERα and LCoR in vivo was further tested by bioluminescence resonance energy transfer (BRET) in living COS-7 cells transiently cotransfected with plasmids expressing ERα-EYFP and LCoR-rluc fusion proteins. […] BRET ratios were calculated as described in experimental procedures.

Molecule	repression of hormone-dependent transactivation by ERα (ERα)	repression of ligand-activated transcription, glucocorticoid receptor (GR)	repression of ligand-activated transcription, progesterone receptor (PR)	repression of ligand-activated transcription, vitamin D receptor (VDR)	effect on the 5×17 mer-tk promoter (5×17 mer-tk promoter)	inhibition of ligand-dependent transactivation by nuclear receptors (nuclear receptors)	effect of NR box mutation on interaction with ERα (BRET) [1]
B1	dose-dependent repression	2.2-5 fold	2.2-5 fold	2.2-5 fold	had no effect	up to 5 fold	
B2	had no effect						largely disrupted hormone-dependent interaction and reduced hormone-independent interaction of the two proteins by approximately two-fold
